According to publication PMC11077089, “Molecular basis of A. thaliana KEOPS complex in biosynthesizing tRNA t6A”:
Substitutions are numbered along the chain they refer to.

Columns and labels:
Assay in all cases: EMSA; 1:5 RNA:protein; MST: 20 mM PBS pH 7.5, 300 mM NaCl, 0.05% Tween 20, 25 C, 50 nM RNA; EMSA: 20 mM Tris-HCl pH 7.5, 300 mM NaCl, 5 mM b-mercaptoethanol, 20% glycerol, agarose gel in Tris-glycine pH 8.0 (8.5 for FAM-RNA), 4 C
Conditions in all cases: protein: recombinant;recombinant;recombinant;recombinant; tags: ;none (6His on partner CGI121);6His (C-term);6His (C-term); chain copies: 2;2;2;2; label: 5' 6-FAM; tRNA cloverleaf
[1] = biological target: T1, KAE1 A231G;BUD32;CGI121;PCC1 (Arabidopsis thaliana;Arabidopsis …, UniProt O49653;Q94K14;Q6NMZ4;Q8GWD7 1-353;1-226;1-172;1-96, A231G|||)
T1 sequence 1: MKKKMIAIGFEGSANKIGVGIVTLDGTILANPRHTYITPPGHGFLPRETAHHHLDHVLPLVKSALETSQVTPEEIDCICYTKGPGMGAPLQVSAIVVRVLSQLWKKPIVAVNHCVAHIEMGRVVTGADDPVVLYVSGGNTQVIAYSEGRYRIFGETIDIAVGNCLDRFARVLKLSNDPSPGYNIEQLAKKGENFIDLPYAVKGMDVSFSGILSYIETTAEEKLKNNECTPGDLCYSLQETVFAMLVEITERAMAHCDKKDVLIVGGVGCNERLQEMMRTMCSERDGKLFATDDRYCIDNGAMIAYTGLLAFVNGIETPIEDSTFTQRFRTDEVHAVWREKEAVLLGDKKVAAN
T1 sequence 2: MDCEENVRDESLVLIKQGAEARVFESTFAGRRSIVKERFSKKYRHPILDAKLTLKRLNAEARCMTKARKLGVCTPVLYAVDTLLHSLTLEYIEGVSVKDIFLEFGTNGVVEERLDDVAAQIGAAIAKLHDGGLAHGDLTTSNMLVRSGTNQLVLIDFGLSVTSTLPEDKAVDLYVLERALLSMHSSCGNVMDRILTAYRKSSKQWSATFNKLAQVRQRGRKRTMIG
T1 sequence 3: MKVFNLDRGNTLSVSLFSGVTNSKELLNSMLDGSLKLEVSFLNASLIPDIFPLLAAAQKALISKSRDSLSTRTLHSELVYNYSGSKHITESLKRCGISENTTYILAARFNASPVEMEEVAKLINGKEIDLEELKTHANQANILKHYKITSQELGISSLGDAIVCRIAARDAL
T1 sequence 4: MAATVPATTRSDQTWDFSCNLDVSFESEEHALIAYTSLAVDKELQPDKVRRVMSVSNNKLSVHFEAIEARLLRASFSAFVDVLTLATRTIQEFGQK

[2] = biological target: T2, KAE1 D298R;BUD32;CGI121;PCC1 (Arabidopsis thaliana;Arabidopsis …, UniProt O49653;Q94K14;Q6NMZ4;Q8GWD7 1-353;1-226;1-172;1-96, D298R|||)
T2 sequence 1: T1 sequence 1 with G231A, D298R
T2 sequence 2: T1 sequence 2
T2 sequence 3: T1 sequence 3
T2 sequence 4: T1 sequence 4

[3] = biological target: T3, KAE1 I17F;BUD32;CGI121;PCC1 (Arabidopsis thaliana;Arabidopsis …, UniProt O49653;Q94K14;Q6NMZ4;Q8GWD7 1-353;1-226;1-172;1-96, I17F|||)
T3 sequence 1: T1 sequence 1 with I17F, G231A
T3 sequence 2: T1 sequence 2
T3 sequence 3: T1 sequence 3
T3 sequence 4: T1 sequence 4

[4] = biological target: T4, KAE1 H117A;BUD32;CGI121;PCC1 (Arabidopsis thaliana;Arabidopsis …, UniProt O49653;Q94K14;Q6NMZ4;Q8GWD7 1-353;1-226;1-172;1-96, H117A|||)
T4 sequence 1: T1 sequence 1 with H117A, G231A
T4 sequence 2: T1 sequence 2
T4 sequence 3: T1 sequence 3
T4 sequence 4: T1 sequence 4

Measured: binding result

B1: 5'-6FAM-tRNAArgCCU (structured_RNA)
RNA: GCGCCUGUAGCUCAGUGGAUAGAGCGUCUGUUUCCUAAGCAGAAGGUCGUAGGUUCGACCCCUACCUGGCGCGCCA
binds: all assays above
